Measurements: article PMC2753885 (Biochemistry, 2009)
Where two headings read alike, the source gives them in different places.

T1: YPD1, histidine-containing phosphotransfer (HPt) protein (S. cerevisiae, UniProt Q07688 1-167)
T1 sequence (looked up): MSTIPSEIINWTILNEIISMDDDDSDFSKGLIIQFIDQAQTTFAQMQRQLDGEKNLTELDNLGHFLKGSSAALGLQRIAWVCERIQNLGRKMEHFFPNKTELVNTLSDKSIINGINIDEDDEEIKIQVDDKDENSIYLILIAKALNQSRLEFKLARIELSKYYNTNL

T2: SSK1 response regulator (receiver) domain, SSK1-R2 (S. cerevisiae, UniProt Q07084 495-712)
T2 sequence (looked up): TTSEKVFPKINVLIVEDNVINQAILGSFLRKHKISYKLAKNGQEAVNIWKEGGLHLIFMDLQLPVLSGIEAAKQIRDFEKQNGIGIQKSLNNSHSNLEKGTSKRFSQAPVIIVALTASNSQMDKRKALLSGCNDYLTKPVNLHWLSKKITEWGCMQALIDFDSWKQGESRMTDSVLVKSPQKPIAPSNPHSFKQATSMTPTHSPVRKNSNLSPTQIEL


Key:
Assay in all cases: rapid-quench phosphotransfer kinetics
[1] = target: T1, YPD1, histidine-containing …
[2] = target: T1, YPD1, histidine-containing …; remark: listed apart in the source
[3] = target: T1, YPD1, histidine-containing …; remark: listed apart in the source
[4] = target: T1, YPD1, histidine-containing …; remark: listed apart in the source
[5] = target: T1, YPD1, histidine-containing …; remark: listed apart in the source
[6] = target: T1, YPD1, histidine-containing …; remark: listed apart in the source
[7] = target: T1, YPD1, histidine-containing …; remark: listed apart in the source
[8] = target: T1, YPD1, histidine-containing …; remark: listed apart in the source
[9] = target: T1, YPD1, histidine-containing …; remark: listed apart in the source
[10] = target: T1, YPD1, histidine-containing …; remark: listed apart in the source
[11] = target: T2, SSK1 response regulator (receiver) …
[12] = target: T2, SSK1 response regulator (receiver) …; remark: listed apart in the source
[13] = target: T2, SSK1 response regulator (receiver) …; remark: listed apart in the source
[14] = target: T2, SSK1 response regulator (receiver) …; remark: listed apart in the source
[15] = target: T2, SSK1 response regulator (receiver) …; remark: listed apart in the source
[16] = target: T2, SSK1 response regulator (receiver) …; remark: listed apart in the source
[17] = target: T2, SSK1 response regulator (receiver) …; remark: listed apart in the source
[18] = target: T2, SSK1 response regulator (receiver) …; remark: listed apart in the source
[19] = target: T2, SSK1 response regulator (receiver) …; remark: listed apart in the source
[20] = target: T2, SSK1 response regulator (receiver) …; remark: listed apart in the source

Row | Kd [1] | Kd [2] | Kd [3] | Kd [4] | Kd [5] | Kd [6] | Kd [7] | Kd [8] | Kd [9] | Kd [10] | Kd [11] | Kd [12] | Kd [13] | Kd [14] | Kd [15] | Kd [16] | Kd [17] | Kd [18] | Kd [19] | Kd [20] | Binder
1 | 2.7 µM | 3.2 µM | 2.3 µM | 10 µM | 2.6 µM | 6.2 µM | 2.3 µM | 4.6 µM | 2.8 µM | 18 µM |  |  |  |  |  |  |  |  |  |  | phosphorylated SLN1 response regulator (receiver) domain, SLN1-R1∼P (domain or fragment, S. cerevisiae, UniProt P39928 1084-1220, looked up, phosphorylated (32P) by phosphotransfer from phospho-SLN1-HK; residue not printed for this domain) NETSVKILVVEDNHVNQEVIKRMLNLEGIENIELACDGQEAFDKVKELTSKGENYNMIFMDVQMPKVDGLLSTKMIRRDLGYTSPIVALTAFADDSNIKECLESGMNGFLSKPIKRPKLKTILTEFCAAYQGKKNNK
2 |  |  |  |  |  |  |  |  |  |  | 4.3 µM | 4.4 µM | 2.2 µM | 4 µM | 1.4 µM | 3 µM | 4.3 µM | 2.1 µM | 3.8 µM | 11.5 µM | phosphorylated YPD1, YPD1∼P (natural protein, S. cerevisiae, UniProt Q07688 1-167, looked up, phosphorylated (32P) by phosphotransfer from GST-SLN1-HK-R1; residue not given) MSTIPSEIINWTILNEIISMDDDDSDFSKGLIIQFIDQAQTTFAQMQRQLDGEKNLTELDNLGHFLKGSSAALGLQRIAWVCERIQNLGRKMEHFFPNKTELVNTLSDKSIINGINIDEDDEEIKIQVDDKDENSIYLILIAKALNQSRLEFKLARIELSKYYNTNL
